According to US5885833:

Biological target: E2F1-DP1 heterodimer (E2F1 aa 87-1398 as printed) (Homo sapiens?) (UniProt Q01094+Q14186)
Assay: EMSA
[1] = complex not specified individually

Chain of E2F1-DP1 heterodimer (E2F1 aa 87-1398 as printed) (Homo sapiens?) (Q01094 whole entry, chain 1 of 2, the tested form may be a part): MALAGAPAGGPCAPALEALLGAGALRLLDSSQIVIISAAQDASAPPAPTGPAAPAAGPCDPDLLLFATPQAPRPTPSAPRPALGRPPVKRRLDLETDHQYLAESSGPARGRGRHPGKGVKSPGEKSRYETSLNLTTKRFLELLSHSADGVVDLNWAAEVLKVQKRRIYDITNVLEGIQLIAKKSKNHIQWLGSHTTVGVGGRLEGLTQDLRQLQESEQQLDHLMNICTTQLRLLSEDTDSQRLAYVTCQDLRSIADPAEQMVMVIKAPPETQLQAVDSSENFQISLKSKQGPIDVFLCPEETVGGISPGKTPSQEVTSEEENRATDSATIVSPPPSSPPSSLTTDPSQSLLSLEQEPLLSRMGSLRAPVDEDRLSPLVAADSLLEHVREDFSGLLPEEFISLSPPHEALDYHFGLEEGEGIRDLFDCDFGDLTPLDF
Chain of E2F1-DP1 heterodimer (E2F1 aa 87-1398 as printed) (Homo sapiens?) (Q14186 whole entry, chain 2 of 2, the tested form may be a part): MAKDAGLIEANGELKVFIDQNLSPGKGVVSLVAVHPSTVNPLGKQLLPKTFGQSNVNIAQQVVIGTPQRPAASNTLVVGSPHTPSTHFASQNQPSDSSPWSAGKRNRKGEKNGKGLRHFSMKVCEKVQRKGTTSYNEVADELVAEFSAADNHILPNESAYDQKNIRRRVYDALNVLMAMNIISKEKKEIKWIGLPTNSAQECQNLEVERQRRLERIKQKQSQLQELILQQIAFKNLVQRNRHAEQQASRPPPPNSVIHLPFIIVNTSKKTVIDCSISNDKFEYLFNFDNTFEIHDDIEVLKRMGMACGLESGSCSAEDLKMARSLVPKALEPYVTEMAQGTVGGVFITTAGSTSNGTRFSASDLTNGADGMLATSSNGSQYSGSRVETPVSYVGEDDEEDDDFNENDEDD

## GGCGCCGACGCACTTGGCTGGAGATAGGAAAGTGGTTCTGTG (double strand) [mutated B-myb probe]
[1]
  binding signal (% probe bound): < 0.01

## GATCCTCTCACCTGCTGCTAG (double strand) [control probe]
[1]
  binding signal (% probe bound): < 0.002

## GATCGACTAGTTTCGCGCCCTTTCTACTAG (double strand) [E2a adenovirus promoter probe]
22 C, 50 mM NaCl, pH 8.0
  binding signal (% probe bound): 1
